Laboratory results reported in patent publication US5773001 (American Cyanamid Company, dated 1998).
Where two headings read alike, the source gives them in different places. Values belong to the molecule of their own block, whether it stands above or below them.

Assays:
[1] = target: T1, glycoprotein antigen present on colon cancer cells, recognized by A33 (Homo sapiens (Human)) (UniProt Q99795); experiment: competition on Colo205 cells, FACScan; competitor FITC-labelled murine A33
T1 sequence: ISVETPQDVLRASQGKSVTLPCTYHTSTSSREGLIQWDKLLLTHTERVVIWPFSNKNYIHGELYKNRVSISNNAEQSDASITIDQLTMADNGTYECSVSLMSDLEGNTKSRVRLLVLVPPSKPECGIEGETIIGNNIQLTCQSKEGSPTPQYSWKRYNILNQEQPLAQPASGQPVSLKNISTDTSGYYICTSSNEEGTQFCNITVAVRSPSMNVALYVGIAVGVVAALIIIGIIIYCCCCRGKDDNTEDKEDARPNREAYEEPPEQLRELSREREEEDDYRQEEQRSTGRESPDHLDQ

CD33 antigen (human) [2] = target: CD33 antigen (human) (UniProt P20138)
CD33 antigen (human) [3] = target: CD33 antigen (human) (UniProt P20138); experiment: competition with 125I-labelled native antibody on HEL 92.1.7 cells; IC50 (reference) / IC50 (sample)
CD33 antigen (human) [4] = target: CD33 antigen (human) (UniProt P20138); remark: listed apart in the source
CD33 antigen (human) [5] = target: CD33 antigen (human) (UniProt P20138); remark: listed apart in the source
CD33 antigen (human) [6] = target: CD33 antigen (human) (UniProt P20138); remark: listed apart in the source
[7] = target: polyepithelial mucin (PEM) antigen on cells (human) (UniProt P15941)
Chain of polyepithelial mucin (PEM) antigen on cells (human) (P15941 24-1255): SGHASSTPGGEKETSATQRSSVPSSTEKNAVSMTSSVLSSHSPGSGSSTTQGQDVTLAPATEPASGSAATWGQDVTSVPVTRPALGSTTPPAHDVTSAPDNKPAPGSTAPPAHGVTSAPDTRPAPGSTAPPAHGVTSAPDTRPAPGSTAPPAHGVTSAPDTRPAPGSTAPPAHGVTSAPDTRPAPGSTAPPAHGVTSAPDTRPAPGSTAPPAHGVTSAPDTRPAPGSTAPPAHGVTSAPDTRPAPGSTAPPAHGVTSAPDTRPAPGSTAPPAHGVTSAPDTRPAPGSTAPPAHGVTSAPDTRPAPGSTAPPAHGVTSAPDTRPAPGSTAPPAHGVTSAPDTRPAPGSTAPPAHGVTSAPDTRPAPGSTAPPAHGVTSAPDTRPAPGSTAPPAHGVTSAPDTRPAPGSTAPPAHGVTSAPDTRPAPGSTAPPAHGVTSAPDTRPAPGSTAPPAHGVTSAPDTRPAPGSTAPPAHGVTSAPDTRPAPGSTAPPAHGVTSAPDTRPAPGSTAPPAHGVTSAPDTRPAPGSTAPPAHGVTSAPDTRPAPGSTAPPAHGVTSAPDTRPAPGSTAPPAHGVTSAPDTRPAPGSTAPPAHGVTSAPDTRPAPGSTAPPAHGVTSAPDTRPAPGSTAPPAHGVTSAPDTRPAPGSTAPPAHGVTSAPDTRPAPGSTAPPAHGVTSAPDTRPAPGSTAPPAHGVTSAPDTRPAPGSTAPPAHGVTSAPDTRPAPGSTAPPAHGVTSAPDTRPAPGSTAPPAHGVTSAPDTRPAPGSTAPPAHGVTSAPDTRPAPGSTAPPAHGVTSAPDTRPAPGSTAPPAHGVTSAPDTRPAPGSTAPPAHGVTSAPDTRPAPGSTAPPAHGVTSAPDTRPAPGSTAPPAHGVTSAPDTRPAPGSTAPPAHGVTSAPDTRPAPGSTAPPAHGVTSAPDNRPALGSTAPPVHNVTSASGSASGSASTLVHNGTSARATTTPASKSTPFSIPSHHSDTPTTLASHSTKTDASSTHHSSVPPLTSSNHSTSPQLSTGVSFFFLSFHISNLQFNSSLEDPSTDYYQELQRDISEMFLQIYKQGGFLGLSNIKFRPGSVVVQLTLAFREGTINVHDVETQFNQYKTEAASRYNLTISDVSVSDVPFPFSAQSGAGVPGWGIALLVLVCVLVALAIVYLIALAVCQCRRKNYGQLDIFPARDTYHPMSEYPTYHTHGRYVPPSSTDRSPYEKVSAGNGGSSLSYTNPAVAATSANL

[8] = target: polyepithelial mucin (PEM) antigen on cells (human) (UniProt P15941); experiment: competition with 125I-labelled native antibody on A2780DDP cells; IC50 (reference) / IC50 (sample)
[9] = target: polyepithelial mucin (PEM) antigen on cells (human) (UniProt P15941); remark: listed apart in the source
[10] = target: T2, polymorphic epithelial mucin (PEM) (human, UniProt P15941); experiment: reactivity of affinity column fractions with the CTM01 MAb
[11] = target: T1, glycoprotein antigen present on colon cancer cells, recognized by A33 (Homo sapiens (Human))
[12] = target: T1, glycoprotein antigen present on colon cancer cells, recognized by A33 (Homo sapiens (Human)); experiment: competition with 125I-labelled native antibody on COLO 205 cells; IC50 (reference) / IC50 (sample)
CD33 antigen (human) [13] = target: CD33 antigen (human) (UniProt P20138); experiment: competition with 125I-labelled native antibody on HEL 92.1.7 cells; IC50 (reference) / IC50 (sample); remark: listed apart in the source
CD33 antigen (human) [14] = target: CD33 antigen (human) (UniProt P20138); remark: listed apart in the source
CD33 antigen (human) [15] = target: CD33 antigen (human) (UniProt P20138); remark: listed apart in the source
CD33 antigen (human) [16] = target: CD33 antigen (human) (UniProt P20138); remark: listed apart in the source
CD33 antigen (human) [17] = target: CD33 antigen (human) (UniProt P20138); remark: listed apart in the source
CD33 antigen (human) [18] = target: CD33 antigen (human) (UniProt P20138); remark: listed apart in the source
CD33 antigen (human) [19] = target: CD33 antigen (human) (UniProt P20138); remark: listed apart in the source
CD33 antigen (human) [20] = target: CD33 antigen (human) (UniProt P20138); remark: listed apart in the source
soluble CD33 antigen = soluble CD33 antigen (Homo sapiens (Human), UniProt P20138); experiment: inhibition of binding to HL60 cells by pre-incubation with soluble antigen
CD33 antigen (human) [21] = target: CD33 antigen (human) (UniProt P20138); experiment: competition binding on HL60 cells against murine antibody
CD33 antigen (human) [22] = target: CD33 antigen (human) (UniProt P20138); remark: listed apart in the source
CD33 antigen (human) [23] = target: CD33 antigen (human) (UniProt P20138); remark: listed apart in the source
CD33 antigen (human) [24] = target: CD33 antigen (human) (UniProt P20138); remark: listed apart in the source
CD33 antigen (human) [25] = target: CD33 antigen (human) (UniProt P20138); remark: listed apart in the source
[26] = target: T2, polymorphic epithelial mucin (PEM); experiment: competition EIA on PEM-coated plates; competitor biotinylated CTM01 MAb

Rel. Affinity (CD33 antigen (human) [3]): 1.05
In vitro IC50 (3H-thymidine incorporation) (CD33 antigen (human) [4]): 4 ng/mL
Molecule: Conjugate of 4-formylbenzoic acid (2) condensed with Calicheamicin N-acetyl gamma dimethyl hydrazide and m-P67.6 (antibody)

In vitro IC50 (3H-thymidine incorporation) (CD33 antigen (human) [6]): < 0.005 ng/mL
Rel. Affinity (CD33 antigen (human) [3]): 0.73
Molecule: Conjugate of 5-(4-acetylphenyl)amino!-5-oxopentanoic acid (24) condensed with Calicheamicin N-acetyl gamma dimethyl hydrazide and m-P67.6 (antibody)

In vitro IC50 (3H-thymidine incorporation) [7]: 1.5 ng/mL
Rel. Affinity [8]: 0.84
B1: Conjugate of 4-formylphenoxyacetic acid (1) condensed with Calicheamicin N-acetyl gamma dimethyl hydrazide and m-CT-M-01 (antibody, V domains shown)
VH: QIQLQQSGPELVKPGASVKISCKASGYTFTDYYINWMKQKPGQGLEWIGWIDPGSGNTKYNEKFKGKATLTVDTSSSTAYMQLSSLTSEDTAVYFCAREKTTYYYAMDYWGQGTSVTVSA
VL: DIVMTQAAPSVPVTPGESLSISCRSSKSLLHSNGDTFLYWFLQRPGQSPQLLIYRMSNLASGVPDRFSGSGSGTAFTLRVSRVEAEDVGVYYCMQHLEYPFTFGAGTKLELKR
modifications: drug-linker amide on lysine side chains, sites not stated; drug-linker amide on lysine side chains, sites not stated

Rel. Affinity (CD33 antigen (human) [13]): 0.67
In vitro IC50 (3H-thymidine incorporation) (CD33 antigen (human) [14]): 99 ng/mL
B5: Conjugate of 4-4-(4-fluorobenzoyl)phenoxy!butanoic acid (21) condensed with Calicheamicin N-acetyl gamma dimethyl hydrazide and h-P67.6 (antibody, V domains shown)
VH: EVQLVQSGAEVKKPGSSVKVSCKASGYTITDSNIHWVRQAPGQSLEWIGYIYPYNGGTDYNQKFKNRATLTVDNPTNTAYMELSSLRSEDTDFYYCVNGNPWLAYWGQGTLVTVSS
VL: DIQLTQSPSTLSASVGDRVTITCRASESLDNYGIRFLTWFQQKPGKAPKLLMYAASNQGSGVPSRFSGSGSGTEFTLTISSLQPDDFATYYCQQTKEVPWSFGQGTKVEVKR
modifications: drug-linker amide on lysine side chains, sites not stated; drug-linker amide on lysine side chains, sites not stated

In vitro IC50 (3H-thymidine incorporation) (CD33 antigen (human) [15]): 0.0071 ng/mL
Rel. Affinity (CD33 antigen (human) [13]): 0.31
B6: Conjugate of 4-(2-chloro-4-formylphenoxy)butanoic acid (25) condensed with Calicheamicin N-acetyl gamma dimethyl hydrazide and h-P67.6 (antibody, V domains shown)
VH: B5 VH
VL: B5 VL
modifications: drug-linker amide on lysine side chains, sites not stated; drug-linker amide on lysine side chains, sites not stated

In vitro IC50 (3H-thymidine incorporation) (CD33 antigen (human) [16]): 63 ng/mL
Rel. Affinity (CD33 antigen (human) [13]): 0.76
B7: Conjugate of 4-4-(4-fluorobenzoyl)phenoxy!butanoic acid (21) condensed with Calicheamicin N-acetyl gamma, dimethyl hydrazide and h-P67.6 (antibody, V domains shown)
VH: B5 VH
VL: B5 VL
modifications: drug-linker amide on lysine side chains, sites not stated; drug-linker amide on lysine side chains, sites not stated

Rel. Affinity (CD33 antigen (human) [13]): 0.8
In vitro IC50 (3H-thymidine incorporation) (CD33 antigen (human) [17]): 0.43 ng/mL
B8: Conjugate of 11-(4-acetylphenoxy)undecanoic acid (23) condensed with Calicheamicin N-acetyl gamma dimethyl hydrazide and h-P67.6 (antibody, V domains shown)
VH: B5 VH
VL: B5 VL
modifications: drug-linker amide on lysine side chains, sites not stated; drug-linker amide on lysine side chains, sites not stated

In vitro IC50 (3H-thymidine incorporation) (CD33 antigen (human) [19]): < 0.005 ng/mL
Rel. Affinity (CD33 antigen (human) [13]): 0.85
B10: Conjugate of 4-2-(4-acetylphenyl)amino!methyl!-6-methoxyphenoxy!butanoic acid (28) condensed with Calicheamicin N-acetyl gamma dimethyl hydrazide and h-P67.6 (antibody, V domains shown)
VH: B5 VH
VL: B5 VL
modifications: drug-linker amide on lysine side chains, sites not stated; drug-linker amide on lysine side chains, sites not stated

In vitro IC50 (3H-thymidine incorporation) (CD33 antigen (human) [20]): 0.023 ng/mL
Rel. Affinity (CD33 antigen (human) [13]): 1.3
B11: Conjugate of 4-(4-formyl-2-nitrophenoxy)butanoic acid (27) condensed with Calicheamicin N-acetyl gamma dimethyl hydrazide and h-P67.6 (antibody, V domains shown)
VH: B5 VH
VL: B5 VL
modifications: drug-linker amide on lysine side chains, sites not stated; drug-linker amide on lysine side chains, sites not stated

Rel. Affinity (CD33 antigen (human) [13]): 1.01
In vitro IC50 (3H-thymidine incorporation) (CD33 antigen (human) [23]): 0.005 ng/mL
B14: Conjugate of 4-(4-acetyl-3-fluorophenoxy)butanoic acid (30) condensed with Calicheamicin N-acetyl gamma dimethyl hydrazide and h-P67.6 (antibody, V domains shown)
VH: B5 VH
VL: B5 VL
modifications: drug-linker amide on lysine side chains, sites not stated; drug-linker amide on lysine side chains, sites not stated

Rel. Affinity (CD33 antigen (human) [13]): 0.98
In vitro IC50 (3H-thymidine incorporation) (CD33 antigen (human) [25]): 12 ng/mL
B16: Conjugate of 4-(4-acetylphenyl)-1-piperazinepentanoic acid (22) condensed with Calicheamicin N-acetyl gamma dimethyl hydrazide and h-P67.6 (antibody, V domains shown)
VH: B5 VH
VL: B5 VL
modifications: drug-linker amide on lysine side chains, sites not stated; drug-linker amide on lysine side chains, sites not stated

Second part, the molecule before the results:

Molecule: humanized A33 (antibody)
relative potency against the murine antibody [1]: 75%

Molecule: Conjugate of 11-(4-acetylphenoxy)undecanoic acid (23) condensed with Calicheamicin N-acetyl gamma dimethyl hydrazide and m-P67.6 (antibody)
In vitro IC50 (3H-thymidine incorporation) (CD33 antigen (human) [2]): 0.47 ng/mL
Rel. Affinity (CD33 antigen (human) [3]): 1.16

Molecule: Conjugate of 5-acetyl-2-(3-carboxypropoxy)benzoic acid (26), methyl ester condensed with Calicheamicin N-acetyl gamma dimethyl hydrazide and h-P67.6 (antibody)
In vitro IC50 (3H-thymidine incorporation) (CD33 antigen (human) [5]): < 0.005 ng/mL
Rel. Affinity (CD33 antigen (human) [3]): 0.79

B2: Conjugate of 4-formylbenzoic acid (2) condensed with Calicheamicin N-acetyl gamma dimethyl hydrazide and m-CT-M-01 (antibody, V domains shown)
VH: B1 VH
VL: B1 VL
modifications: drug-linker amide on lysine side chains, sites not stated; drug-linker amide on lysine side chains, sites not stated
In vitro IC50 (3H-thymidine incorporation) [9]: 5.6 ng/mL
Rel. Affinity [8]: 0.9

B3: CTM01 MAb (antibody, V domains shown)
VH: B1 VH
VL: B1 VL
binding result [10]: binds

B4: Conjugate of 4-(4-acetylphenoxy)butanoic acid (7) condensed with calicheamicin N-acetyl gamma dimethyl hydrazide and m-A33 (antibody, V domains shown)
VH: EVKLVESGGGLVKPGGSLKLSCAASGFAFSTYDMSWVRQTPEKRLEWVATISSGGSYTYYLDSVKGRFTISRDSPRNTLYLQMSSLRSEDTALYYCAPTTVVPFAYWGQGTLVTVSA
VL: DIVMTQSQKFMSTSVGDRVSITCKASQNVRTVVAWYQQKPGQSPKTLIYLASNRHTGVPDRFTGSGSGTDFTLTISNVQSEDLADYFCLQHWSYPLTFGSGTKLEVKR
modifications: drug-linker amide on lysine side chains, sites not stated; drug-linker amide on lysine side chains, sites not stated
In vitro IC50 (3H-thymidine incorporation) [11]: 3.32 ng/mL
Rel. Affinity [12]: 0.68

B9: Conjugate of 4-acetylphenylacetic acid (33) condensed with Calicheamicin N-acetyl gamma dimethyl hydrazide and h-P67.6 (antibody, V domains shown)
VH: B5 VH
VL: B5 VL
modifications: drug-linker amide on lysine side chains, sites not stated; drug-linker amide on lysine side chains, sites not stated
In vitro IC50 (3H-thymidine incorporation) (CD33 antigen (human) [18]): < 0.005 ng/mL
Rel. Affinity (CD33 antigen (human) [13]): 0.91

B12: h-P67.6 (antibody, V domains shown)
VH: B5 VH
VL: B5 VL
binding result (soluble CD33 antigen): binds
loss in immunoaffinity against the murine antibody (CD33 antigen (human) [21]): 50%

B13: Conjugate of 4-(2-Acetylphenoxy)butanoic acid (31) condensed with Calicheamicin N-acetyl gamma dimethyl hydrazide and h-P67.6 (antibody, V domains shown)
VH: B5 VH
VL: B5 VL
modifications: drug-linker amide on lysine side chains, sites not stated; drug-linker amide on lysine side chains, sites not stated
In vitro IC50 (3H-thymidine incorporation) (CD33 antigen (human) [22]): < 0.005 ng/mL
Rel. Affinity (CD33 antigen (human) [13]): 0.95

B15: Conjugate of 2-acetyl-10H-phenothiazine-10-hexanoic acid (32) condensed with Calicheamicin N-acetyl gamma dimethyl hydrazide and h-P67.6 (antibody, V domains shown)
VH: B5 VH
VL: B5 VL
modifications: drug-linker amide on lysine side chains, sites not stated; drug-linker amide on lysine side chains, sites not stated
Rel. Affinity (CD33 antigen (human) [13]): 1.25
In vitro IC50 (3H-thymidine incorporation) (CD33 antigen (human) [24]): 0.021 ng/mL

B17: gL1gH2 (antibody, V domains shown)
VH: QIQLVQSGAEVKKPGSSVKVSCKASGYTFTDYYINWMRQAPGQGLEWIGWIDPGSGNTKYNEKFKGRATLTVDTSTNTAYMELSSLRSEDTAFYFCAREKTTYYYAMDYWGQGTLVTVSS
VL: DIQMTQSPSTLSASVGDRVTITCRSSKSLLHSNGDTFLYWFQQKPGKAPKLLMYRMSNLASGVPSRFSGSGSGTEFTLTISSLQPDDFATYYCMQHLEYPFTFGQGTKVEVKR
binding result [26]: binds
